Results on 32 sequences are retold here after the Immune Epitope Database (IEDB).

Common to all, as to assay: IEDB peptide-MHC binding, purified MHC/competitive/radioactivity; filed as Kd, often an IC50 or EC50 that approximates it; ≥ and ≤ were set here for values at or beyond the usual limits of such assays
Details in all cases: source organism: human papillomavirus 18

The target of experiment [1] is HLA-A*11:02.
Experiment [2] concerns the target HLA-A*01:01.
In experiment [3] the target is HLA-A*03:01.
Experiment [4] concerns the target HLA-A*02:01.
In experiment [5] the target is HLA-A*24:02.

As usually defined, the Kd is the free concentration of one partner at which half of the binding sites on the other are occupied at equilibrium, for simple one-to-one binding. On to ATLQDIVLH, for which, in experiment [1], the Kd was found to be 12 nM.
Turning to CIDFYSRIR, the Kd in experiment [2] stood at 810 nM; in experiment [3] it was 273 nM; in experiment [1] it was 27 nM.
For DIEITCVYC, the figures for the equilibrium dissociation constant (Kd) in experiment [2], in experiment [3] and in experiment [4] were 506 nM, 462 nM and 649 nM, respectively.
On to DLFVVYRDS, for which the dissociation constant Kd in experiment [3] amounted to 1000 nM.
Regarding ELTEVFEFA, the Kd in experiment [4] turned out to be 500 nM.
Consider FAFKDLFVV, for which the Kd in experiment [4] came to 3 nM.
On to FKDLFVVYR, for which the dissociation constant (Kd) in experiment [2] turned out to be 736 nM; in experiment [3], 330 nM; in experiment [4], 500 nM; in experiment [1] it was 500 nM.
For the sequence FLNTLSFVC, the Kd in experiment [4] came to 943 nM.
Still for that read-out and setting: with FQQLFLNTL the figure was 417 nM.
Regarding GLYNLLIRC, the dissociation constant (Kd) in experiment [3] came out at 313 nM; in experiment [4] it was 135 nM; in experiment [1], 188 nM.
Turning to GQCHSCCNR, in experiment [1], the equilibrium dissociation constant (Kd) came to 64 nM.
With HLNEKRRFH, the Kd in experiment [3] stood at 667 nM.
Regarding HTMLCMCCK, the Kd was determined as 73 nM in experiment [3] and 5 nM in experiment [1].
On to IEITCVYCK, for which the equilibrium dissociation constant (Kd) in experiment [3] worked out at 200 nM.
On to KCIDFYSRI, for which the dissociation constant (Kd) in experiment [4] is 417 nM.
As for KLPDLCTEL, the dissociation constant (Kd) in experiment [4] was 602 nM.
Same read-out and setting: with LFLNTLSFV the figure was 820 nM.
As for LFVVYRDSI, the Kd in experiment [3] was determined as 441 nM.
For the sequence LIRCLRCQK, the values for the equilibrium dissociation constant (Kd) in experiment [3] and in experiment [1] were 526 nM and 375 nM, respectively.
For LLIRCLRCQ, in experiment [3], the Kd amounted to 508 nM.
For the sequence LQDIEITCV, the dissociation constant Kd in experiment [2] came out at 988 nM; in experiment [3], 625 nM.
Turning to NTGLYNLLI, the Kd in experiment [2] amounted to 506 nM.
In the case of RCQKPLNPA, the dissociation constant Kd in experiment [1] was determined as 563 nM.
For the sequence RHTMLCMCC, the dissociation constant Kd in experiment [5] stood at 733 nM.
Consider RQERLQRRR, for which the Kd in experiment [3] is 484 nM.
Take SIPHAACHK: the Kd in experiment [1] amounted to 15 nM.
Consider SLQDIEITC, for which the Kd in experiment [4] was 532 nM.
Consider SVYGDTLEK, for which the Kd in experiment [3] was 32 nM; in experiment [1], 2 nM.
Turning to TEVFEFAFK, the Kd in experiment [1] was 257 nM.
The same measure, in the same setting: as for VVYRDSIPH, the figure is 5 nM.
With VYCKTVLEL, the equilibrium dissociation constant (Kd) in experiment [5] stood at 24 nM; in experiment [1], 563 nM.
Regarding VYGDTLEKL, the Kd in experiment [5] was found to be 222 nM.
